Assay results reported in PMC12711061, “Far-infrared irradiation attenuates vessel contraction by activating SERCA2 through disruption of SERCA2 and PLN interaction” (PLOS One, 2025).

Molecular target: sarcoendoplasmic reticulum Ca2+-ATPase 2 (SERCA2), endogenous in rat VSMCs (rat (endogenous in rat aortic VSMCs), UniProt P11507 1-1043)
Assay: cell-based or functional assay

sarcoendoplasmic reticulum Ca2+-ATPase 2 (SERCA2), endogenous in rat VSMCs, sequence (P11507 whole entry): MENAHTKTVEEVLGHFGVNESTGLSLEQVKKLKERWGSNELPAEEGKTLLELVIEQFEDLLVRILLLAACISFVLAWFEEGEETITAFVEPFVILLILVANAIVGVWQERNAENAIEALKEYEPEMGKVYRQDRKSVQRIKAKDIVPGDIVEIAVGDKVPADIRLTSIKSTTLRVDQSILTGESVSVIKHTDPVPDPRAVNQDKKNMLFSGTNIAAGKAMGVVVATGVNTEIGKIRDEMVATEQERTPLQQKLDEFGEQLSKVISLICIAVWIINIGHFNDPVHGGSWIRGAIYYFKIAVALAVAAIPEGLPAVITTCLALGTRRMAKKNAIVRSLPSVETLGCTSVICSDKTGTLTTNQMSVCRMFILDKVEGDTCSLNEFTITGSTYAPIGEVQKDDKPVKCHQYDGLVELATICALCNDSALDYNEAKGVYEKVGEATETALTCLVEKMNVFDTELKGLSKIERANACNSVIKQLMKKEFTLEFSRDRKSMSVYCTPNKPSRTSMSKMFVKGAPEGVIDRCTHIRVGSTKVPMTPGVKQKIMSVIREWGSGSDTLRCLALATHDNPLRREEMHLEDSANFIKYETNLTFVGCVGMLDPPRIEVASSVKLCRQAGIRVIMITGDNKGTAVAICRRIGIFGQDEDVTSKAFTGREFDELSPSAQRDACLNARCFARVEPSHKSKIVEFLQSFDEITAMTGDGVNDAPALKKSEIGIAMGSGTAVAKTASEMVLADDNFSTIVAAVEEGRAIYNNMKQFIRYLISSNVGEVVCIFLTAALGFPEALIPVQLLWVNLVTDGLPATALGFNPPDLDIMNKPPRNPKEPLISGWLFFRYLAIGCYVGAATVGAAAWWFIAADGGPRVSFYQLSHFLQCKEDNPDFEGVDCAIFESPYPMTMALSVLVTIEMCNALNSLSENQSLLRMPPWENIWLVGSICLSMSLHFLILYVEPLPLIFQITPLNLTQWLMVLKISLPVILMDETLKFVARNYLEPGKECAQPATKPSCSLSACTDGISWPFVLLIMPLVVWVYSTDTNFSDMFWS

B1: phospholamban (PLN), endogenous in rat VSMCs (natural protein, rat (endogenous in rat aortic VSMCs), UniProt P61016 1-52, looked up)
chain: MEKVQYLTRSAIRRASTIEMPQQARQNLQNLFINFCLILICLLLICIIVMLL
In the case of B1, the “Ca2+-dependent SERCA activity in VSMC lysate (enzyme-coupled spectrophotometric assay), FIR irradiation for 30 min against the RT control” value is reported as 4.5 fold.
